This note sets out measurements from patent US20230226096A1 (Orna Therapeutics, Inc., priority 2020, published 2023).

B1: Coronavirus AcCoV-JC34 (nucleic acid)
DNA: AGAAACAAGTAGTGTTTTAAAAACCTTCAAATTAGTGCCTGTAACATCTTTGCAATGAAAGTAGCGCTCACTAGCCTCTATGCAAAGAATGTTAAAAGAAATACGAAGCATTTAAAGAATACAATCTATCTAGGATAGGTACAATTCTCCTCCCCCTCTTGACTTCGGTCAACTCAACTCAACTAAACGAAATCCCCCTTGCATGGTTCCGACCCGTGTAAGGTTGTGTATTTCGTGCAGTCGTTGCCCTTACTAGTGTAAGCGTAACGGCATCTAGGTTTGCACGTCTTGGAGGAAACGGTGTGTACGTTTCTAGTGTTTACGCCGTATCGGTTCCGGCCCGATAGGTATTGCATTAGACGTCCTGGGTGGTTCTGCCTGCCCTTGTGTGATTCGGCTGTTCCGTCAGTTTGGTCACCTCACACGTCCTTAAGAC
B2: Poecivirus BCCH-449 (nucleic acid, listed as Poecivirus sp.)
DNA: ACTACACAATCGCAACACGCGCAAGTTTGTAGTTTGATTGGCGTGCAAATGTCAAATCAAGCATATAACACAATTTGGTGGCTGTTGGTGTTTGTTATAGGAATTTTGGTTGTGTTGAAATTGTGGATGTGTAGGAAATATGCACAATTACGTCAGCGTCAGGAGTTTTATAACCTGGCGCAACACCAAAATGGTCTTCGCGCTTTAACATCACCAGCGAGGTGTAAACAAATTGAAGTTGAATTAGATCGTGTATAGGCCAGGGAACCATCCCTCCCAACGCCACATCTTGTGGGGAAGTTGGGATAATGGTGGGTCTATATGAATTGGTCTGTAGACCCACAGTGAAGAGTGAATAGTATGCTTGCGGTTCCATTTGTTAATGGTCTAGCATGGGTGGGGGCGGCAACCCCGTGAGGGGTTCCCCACTGGCCAAAAGCCCAGGGGTTAGTCATTTCAACCAAGGAAGCTGGTAACCTGGTGACCTGAACTTGAGTGGTGAGACCCCCTTGCTAGAGTGTGTAAACCGATTGTAAGCATTTTGTTTGCTTAGTATCTGTGGTATAAGCAGTCAATTTTGTATAGGCTCAAGGCTGTGGTAGTTAGTAGATGCCCGGAAGGTTATTACTGATCCGGGGACCGTGACTATACATTAGGTAAACCGGTTTAAAAACC
B3: Chicken gallivirus 1 (nucleic acid, listed as Gallivirus sp.)
DNA: GGTTAACTTGTTTAACCAAGGCTTCCGTGCAGGGCTTGCACGTTAGGAGTTCATGTTGATTCATGCTCCAATGCCCAAAACTTTGTGTGTTTGTTTATGTCTTTCCCAAAGTTTCCCCCAAGGTTTCGGTACTCAAACCTTAATTCCTAGTCCCATCTTTTGGGCCTTAGTATCTAGGAAATGTACCCGTGCCTTGACGAACGTAAGAAAGCTGTCTTTTATTGAACGGTTCTAATGAACTAAGTATAACTGGCTCGCGCCACCTGGTGTGTGCCGTTGGAATTCCCCCATGGTAACATGGTCCAACGGGCCCGAAAGGCTAGTGGGCAATCGGTCCTCCAAGGAAGGGGTTCCCACCCCGACCTGAACAGGATTTGATGAAGCTCACCTCCCAGGCTCCTAACCCCAAGGAAGTTTACTTATAGTAATTAGAATTTAGTATGTAATTGCTGGCAATCTTGCTAGTAGTCAGGAACGTTATGACCAAATGAGTAGACCCCCAGAAGGTACCCCATTATATGGGATCTGATCTGGGCCTCATACTGTGTGTCTCCCCACATATGAGGTTAAAACCATGAAAGTTTGGTCCAAAATATTCTTTTCCTTTTATCTTTTCTTTAGTGGTGACGCCATTATATCAGCAGTTTGCTG
B4: Chicken picornavirus 1 (nucleic acid)
DNA: GTGGCCGACTTGCAGAACTTCCTACCGAACCACCACCTCACCCCCATAACTCCTTCCCTCTACACCTTCCGCTATGGTGGTTACCACTGCTTTATTGCCTTGACTGAGAATGGCCACCCCCTCGACACCTGCCCCCTACTGCCCCACCGCGCAACCTTTTGCTTGTCCACTCGGTTGGAGAGGCATGGGGGCCCCGTTCATATCCCCAGTCCAGTTGGTGACCTTCCCCCTCCCCGTCCGGTAGATGGTCCAGAGGGCTTTGCCGACGCCCTCTATGATGCTTGCTTGTCTTTCCTCCGTCAGCGCGAGCATGCACTTGTCGAGCCCACGGAAACACAGCCTAGCTTTTGCTTCTCTCACCCTGCGTACCCTGGGCGCCTTCCGCTCGAGATTCGCTTTGTTCGACACCCTGGCGTCCCCCCACCGCTACGTGATTTTACTCGTGGCATACACCGCCCTGGCGTTCAGTACATTCCACTGCCTAATTTGGGTGGCCTCCCTCAATCTCCCGCACCCCCCATTGCGCACGTCATCACCGCCGCCGCTAACGCGATCCGGCGCGGTTCTCACTGGCACTGTCCCCTCGTCCGCCGGGTTTCCACTCATGGTTGGCTTTTCACTTATTCTGGTTACTGGTGTTCCATCCTACTTCATGATGGTCGCCATGACCATGAC
B5: Chicken calicivirus (nucleic acid)
DNA: GGTGCATCATCACTGAACACCCTCGGGCAGAGATGCAAGGGTGGAAGTCACTCCTGCCCCCTGGCAACATGCAGGTGCCCGATCCCAAGCTTAGTTCTGACTTCCTCTCCTGGGTGGTGCAACACTCCAAGGTTGATGAACAAACCTGGAGGGACCTCTGGGCAACCTGGTCTCTCGAGGATCTCCGGCGCATCTCCACAGACTACCTCATGCTCCCGGAACCTGAGAAGAACACTGATGCCTATGATGGCTGGCTGATGGTCGGCGAGATGTTGACCTTTGCCGGTCTCATTGGCTGGGAGG
B6: Chicken picornavirus 3 (nucleic acid)
DNA: GGGTATGGTGGTTAACCCCGTCCACTGGGCATCTTTGCCCTCTCAGAAGTGGATCAATCCACCCCAACTCCCCCCCTGGTTACCTGAGCCACAGTGGACTCCGGTGACGAAGCTAGGGACCCCAATACCTCAAGTGCCAAGAGAGTCCCCCCCTCGCGAGAGGTGCTCTTGGGCCCAAAAGGCTAGTTGGCAGAGTGAAGTGAAGGAAGCTGCTAACGTGGTGACCTTAAGCGTAATTCGAAGCTGACCTTTGAGGTTAACCCTAGTGGACCACTGGAGGAATCTGTGGAGGTGGTGGTTAGGAAAGTTGGCCACTTGTGAGTAGATGCCCAGAAGGCATAAGGCTGATCTGGGGCCAGTGACTATACCGTTCCGGTAAACCTGGTATAAAAACCATGAAAGCAAGTGGGTGAAATTTTCTCTTTTTATCCTTCATTCAGCAGTTGATATTGGCAAA
B7: Chicken orivirus 1 (nucleic acid, listed as Orivirus sp.)
DNA: AAACCCTCACGAGTGCTTGTGGTAGGTCCCAGGCCAATATTCTTCGTAAGGCTTGGTTCCAATTTTCCACCACTCGTGTTTGGGTTCTGGCCTATGGTACCCAGAGGGGCGGTTTGGGGGAATTAACTCCCCCTCCCCTGTGGTCCTATACCACCCCACACCTCTGTGGGCTTTCTTTACTATCTTCTTGTTTTCCGACTTTTAAACACTAGGCAGGCGCGCCTAGTCATACACCGCCCGGCTGGTCTTTCCAGCTCTTGTGGGCGGTGCGCGCTGGTCCATCGTGCCCAGCGACATAGCACCTTGTGGACACCTCCGAACGCCCTCCCCTGTATGGGGTGGTGCCCAGGGGTTTCAGTGTGGTGACACACTCCCTGGGGCCCGAAAGGCTAGTGTGCAACAGGTGAGGTACAGCCAGCTGCCCCCGTGGCTGGAGGGACCAAGCTTGTGAAGCACACCTCACCTTCTTGGGGGTGGGCTAGTAAGTGGTGAAAGCATAGTGTCCGTGTCGCTGGCCAACACTTTGGGTCAAGTCCAGCCACTCAGTGAGTAGATGCCCAGGAGGTACCCCTAGTGGATCTGACTTGGGGCCTGTTACTTAATGCAGGTTAAAAACTATGAAAGCTGAGTAGTGTAGCCCGGCTGGTGGCTTCTCTTCCTTATTCATTCTATTTT

This series concerns HEK293 cells. The series is classed as cell-based, human. Conditions: luminescence from secreted Gluc in supernatant 24 hours after transfection of HEK293 cells; circular RNA encoding Gluc with the named IRES (UTR truncated to 675 nt).
B1 returned an Expression of 1.82E+05. To B2 belongs 3.43E+05; to B3, 1.51E+07. Molecule B4 returned an Expression of 1.21E+05.

Turning to B5, the Expression worked out at 1.28E+05. To B6 belongs 9.13E+04. To B7 belongs 3.16E+05.
